Results from patent publication US20210238276A1 (INTEGRAL MOLECULAR, published 2021).

B1: AB108 (Fc fusion)
scFv: ALTQPSSVSANLGGTVKITCSGSSGSYGWYQQKAPGSAPVTLIYRNDKRPSDIPSRFSGSESGSTGTLTITGVQAEDEAVYFCGGYDSSAGYAAFGAGTTLTVLGQSSRSSGGGGSSGGGGSAVTLDESGGGLQTPGGALSLVCKASGFTFSSHGMGWVRQAPGKGLEWVGSISTGRYTFYAPAVKGRATISRDNGQSTLRLQLNNLRAEDTGTYYCTKCAGLNGCGGGEIDAWGHGTEVIVSS
notes: Bivalent scFv-Fc; also called MAb AB108; not shown: Fc fragment of human IgG1, cloned in frame with the scFv
B2: AB111 (Fc fusion)
scFv: ALTQPSSVSANPGETVKITCSGSGSWYGWFQQKSPGSAPVTVIYSNDKRPSDIPSRFSGSKSGSTSTLTITGVQVEDEAVYYCGNWDIFGAGTTLTVLGQSSRSSGGGGSSGGGGSAVTLDESGGGLQTPGGALSLVCKASGFTFSSHGMGWVRQAPGKGLEWVASISTGRYTFYAPAVKGRATISRDNGQSTVRLQLNNLRAEDTATYYCTKCAGLNGCGGGEIDAWGHGTEVIVSS
notes: Bivalent scFv-Fc; also called MAb AB111; not shown: Fc fragment of human IgG1, cloned in frame with the scFv
B3: AB101 (scFv)
scFv: ALTQPSSVSANPGETVKITCSGSSNSYGWYQQKSPGSAPVTVIYYNDKRPSDIPSRFSGSKSDSTHTLTITGVRAEDEAVYFCGSYDSTYVGIFGAGTTLTVLGQSSRSSGGGGSSGGGGSAVTLDESGGGLQTPGGTLSLVCKASGFTFSSNAMGWVRQAPGKGLEWVAGISSDGRYTKYGSAVKGRATISRDNGQSTVRLQLNNLRAEDTGTYFCAKAFGNNYRRIYAGQIDAWGHGTEVIVSS
notes: Chicken-derived clone used as a control; the four lead clones were tested as scFv-human IgG1 Fc; also called MAb AB101

Legend:
Assay in all cases: flow cytometry, alanine-scan library in HEK-293T
hsGLUT4 M158A = target: T1, hsGLUT4 M158A (human, UniProt P14672 1-509)
T1 sequence: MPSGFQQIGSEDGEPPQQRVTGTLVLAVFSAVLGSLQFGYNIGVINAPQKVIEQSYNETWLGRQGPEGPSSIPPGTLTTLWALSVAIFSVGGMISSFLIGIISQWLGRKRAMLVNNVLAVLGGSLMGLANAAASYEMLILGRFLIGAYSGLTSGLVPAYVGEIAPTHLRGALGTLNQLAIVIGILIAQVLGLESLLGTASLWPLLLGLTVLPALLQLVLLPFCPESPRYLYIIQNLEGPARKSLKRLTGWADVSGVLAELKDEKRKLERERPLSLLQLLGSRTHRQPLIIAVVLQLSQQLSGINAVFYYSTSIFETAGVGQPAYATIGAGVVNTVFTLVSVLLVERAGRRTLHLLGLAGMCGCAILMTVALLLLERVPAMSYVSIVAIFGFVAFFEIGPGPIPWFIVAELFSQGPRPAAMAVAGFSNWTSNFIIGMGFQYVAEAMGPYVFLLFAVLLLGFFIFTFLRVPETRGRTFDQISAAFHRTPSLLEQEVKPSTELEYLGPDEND
Outline: (§1)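 HEK-293T cells expressing individual GLUT4 alanine mutants were stained 48 h post-transfection with anti-GLUT4 scFv MAbs (2 μg/ml), then biotinylated secondary and streptavidin-PerCP, and read by high-throughput flow cytometry. Where used, cytochalasin B (10 uM final) was given for 30 min before and during primary antibody staining.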

hsGLUT4 V306A = target: T2, hsGLUT4 V306A (human, UniProt P14672 1-509)
T2 sequence: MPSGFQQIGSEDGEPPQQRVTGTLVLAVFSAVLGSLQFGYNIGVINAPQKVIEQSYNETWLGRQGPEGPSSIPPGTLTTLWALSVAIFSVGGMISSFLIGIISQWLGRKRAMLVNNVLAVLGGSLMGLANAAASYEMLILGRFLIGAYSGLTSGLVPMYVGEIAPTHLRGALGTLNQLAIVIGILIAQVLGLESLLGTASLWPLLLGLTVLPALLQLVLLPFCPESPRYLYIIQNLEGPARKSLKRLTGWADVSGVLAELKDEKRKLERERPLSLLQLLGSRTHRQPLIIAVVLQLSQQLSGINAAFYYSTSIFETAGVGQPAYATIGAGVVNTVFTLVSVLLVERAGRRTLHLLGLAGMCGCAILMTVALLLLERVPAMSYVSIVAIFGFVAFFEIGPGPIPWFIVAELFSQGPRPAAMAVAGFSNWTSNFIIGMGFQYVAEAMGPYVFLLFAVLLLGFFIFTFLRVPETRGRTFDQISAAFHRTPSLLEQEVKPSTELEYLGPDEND
Outline: as §1

hsGLUT4 Y309A = target: T3, hsGLUT4 Y309A (human, UniProt P14672 1-509)
T3 sequence: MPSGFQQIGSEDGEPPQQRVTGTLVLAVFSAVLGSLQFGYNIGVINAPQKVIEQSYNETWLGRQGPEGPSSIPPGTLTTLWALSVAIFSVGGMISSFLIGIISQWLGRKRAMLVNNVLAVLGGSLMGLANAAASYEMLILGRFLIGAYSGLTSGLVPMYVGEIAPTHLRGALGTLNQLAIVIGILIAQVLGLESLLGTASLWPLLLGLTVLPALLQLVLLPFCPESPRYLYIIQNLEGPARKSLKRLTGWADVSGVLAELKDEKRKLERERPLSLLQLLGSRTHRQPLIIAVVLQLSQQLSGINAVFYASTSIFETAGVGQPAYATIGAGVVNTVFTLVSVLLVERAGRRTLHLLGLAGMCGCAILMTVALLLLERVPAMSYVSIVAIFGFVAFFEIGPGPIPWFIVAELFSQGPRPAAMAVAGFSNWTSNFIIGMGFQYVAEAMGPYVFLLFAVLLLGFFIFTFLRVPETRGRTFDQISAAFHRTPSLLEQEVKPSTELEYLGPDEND
Outline: as §1

hsGLUT4 F405A = target: T4, hsGLUT4 F405A (human, UniProt P14672 1-509)
T4 sequence: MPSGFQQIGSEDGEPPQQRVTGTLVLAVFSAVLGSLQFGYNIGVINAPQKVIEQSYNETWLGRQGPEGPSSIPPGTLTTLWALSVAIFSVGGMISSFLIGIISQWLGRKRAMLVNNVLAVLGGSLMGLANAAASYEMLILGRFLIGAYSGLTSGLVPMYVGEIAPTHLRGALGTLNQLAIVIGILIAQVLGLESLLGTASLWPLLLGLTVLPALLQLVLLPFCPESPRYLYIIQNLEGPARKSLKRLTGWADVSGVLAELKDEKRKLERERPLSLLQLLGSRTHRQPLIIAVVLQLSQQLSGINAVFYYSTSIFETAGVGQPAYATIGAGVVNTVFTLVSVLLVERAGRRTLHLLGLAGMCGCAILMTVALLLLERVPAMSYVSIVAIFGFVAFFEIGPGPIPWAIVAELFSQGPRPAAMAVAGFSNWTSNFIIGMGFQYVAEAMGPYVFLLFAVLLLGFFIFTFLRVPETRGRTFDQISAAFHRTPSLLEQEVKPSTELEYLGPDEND
Outline: as §1

| Molecule | % of binding to wild type GLUT4 (hsGLUT4 M158A) | % of binding to wild type GLUT4 (hsGLUT4 V306A) | % of binding to wild type GLUT4 (hsGLUT4 Y309A) | % of binding to wild type GLUT4 (hsGLUT4 F405A) |
| --- | --- | --- | --- | --- |
| 1F8 (antibody) | 95% | 74% | 75% | 107% |
| B1 | 110% | 83% | 91% | 103% |
| B2 | 107% | 171% | 110% | 118% |
| B3 | 126% | 91% | 64% | 106% |
